In patent US11692025 (UNIVERSITY COURT OF THE UNIVERSITY OF ABERDEEN, dated 2023):
Positions count from the first letter of the chain named.

B1: huE06 v1.1 (VNAR)
VNAR: TRVDQSPSSLSASVGDRVTITCVLTDTSYPLYSTYWYQQKPGSSNKEQISISGRYSESVNKGTKSFTLTISSLQPEDFATYYCRAMGTNIWTGDGAGTKVEIK
notes: Humanized VNAR, tested as monomeric 6xHis-tagged protein; also called humanized E06 v1.1; not shown: 6xHis tag
B2: huE06 v1.10 (VNAR)
VNAR: B1 VNAR with Q38R, Q39K, K40N
notes: Humanized VNAR, tested as monomeric 6xHis-tagged protein; also called hE06v1.10; humanized E06 v1.10; not shown: 6xHis tag
B3: SEQ ID NO 58 (VNAR)
VNAR: TRVDQTPRTATKETGESLTINCVLTDTSYPLYSTYWYRKNPGSSNKEQISISGRYVESVNKGTKSFSLRIKDLTVADSATYICRAYTPGREDYGAGTVLTVN
notes: clone name not tied to this number; one of the 13 entries may be a consensus
B4: SEQ ID NO 52 (VNAR)
VNAR: IRVDQTPRTATKETGESLTINCVLTGTVCGMYSTSWSRKNPGRADWERISIGGRYVESVNKGAKSFSLRIRDLTVADSATYCCSAESPPICTSQGIAAVTKYYDGAGTVLTVN
notes: as for B3
B5: SEQ ID NO 60 (VNAR)
VNAR: ASVNQTPRTATKETGESLTINCVLTGTSCSLYSTSWFRKNPGTTDWERISIGGRYVESVNKGAKSFSLRIKDLTVADSATYYCKAEKGRKGSAITSCRRSSYYDGAGTVLTVN
notes: as for B3
B6: SEQ ID NO 54 (VNAR)
VNAR: ARVDQTPRTATKETGESLTINCVLTDTSYPLYSTYWYRKNPGSSNKEQISISGRYVESVNKGTKSFSLRIKDLTVADSATYICRAYTIHIKLEQHGAGTVLTVN
notes: as for B3
B7: SEQ ID NO 57 (VNAR)
VNAR: AKVDQTPRTTTKETGESLTINCVLTETSYGLSSTSWFQKNPGTTDWERMSIGGRYVESVNTGAKSFSLRIKDLTVADSATYYCKAHAGYGVWNRGLQWRGYDQYDGAGTVLTVN
notes: as for B3
B8: SEQ ID NO 62 (other)
chain: IRVDQTPRTATKETGGSLTINCVLTDTSYPLYSTYWYRKNPGSSNKEQISISGRYVESVNKGTKSFSLRIKDLTVADSATYICRALSTYMEAGDGAGTVLTVN
notes: as for B3
B9: SEQ ID NO 53 (VNAR)
VNAR: B8 chain with I1A, G16E, L86I, S87T, Y89D, M90S, E91W, A92T, G93S, V99A
notes: as for B3
B10: SEQ ID NO 55 (VNAR)
VNAR: ARVDQTPRTATKETGESLTINCVLTDTSYPLYSTYWYRKNPGSPNKERISISGRYVESVNKGTKSFSLRIKDLTVADSATYICRAMGANSWTGDGAGTALTVN
notes: as for B3
B11: SEQ ID NO 56 (VNAR)
VNAR: B10 VNAR with R2S, D4N, T27A, P44S, R48Q, S50P, A88T, S90G, A99V
notes: as for B3
B12: SEQ ID NO 61 (VNAR)
VNAR: B10 VNAR with P44S, R48Q, A79G, A85S, M86I, G87T, A88T, N89H, T92S
notes: as for B3
B13: SEQ ID NO 63 (VNAR)
VNAR: ASVNQTPRTATKETGESLTINCVLTDTSYPLYSTYWYRKNPGSSNKEQIPISGRYVESVNKGTKSFSLRIKDLTVADSATYICRAMDTSAGVVDGAGTVLTVN
notes: as for B3
B14: SEQ ID NO 59 (VNAR)
VNAR: B10 VNAR with T25A, P44S, R48Q, M86S, G87D, A88I, N89A, S90M, W91G, G93Y
notes: as for B3
B15: AH7 (VNAR)
VNAR: B1 VNAR with S6T, Q38R, Q39K, K40N, F66S
notes: Variant of huE06 v1.10 from error-prone PCR
B16: AC9 (VNAR)
VNAR: B1 VNAR with Q38R, Q39K, K40N, F66S
notes: as for B15
B17: BD12 (VNAR)
VNAR: B1 VNAR with Q38R, Q39K, K40N, K64N
notes: as for B15
B18: BE4 (VNAR)
VNAR: B1 VNAR with P30S, Q38R, Q39K, K40N
notes: as for B15
B19: BA11 (VNAR)
VNAR: B1 VNAR with Q38R, Q39K, K40N, F78S, G87S
notes: as for B15
B20: BC3 (VNAR)
VNAR: B1 VNAR with Q38R, Q39K, K40N, S44N
notes: as for B15
B21: AG11 (VNAR)
chain: B1 VNAR with Q38R, Q39K, K40N, I102T
notes: as for B15
B22: BB11 (VNAR)
VNAR: B1 VNAR with Q38R, Q39K, K40N, G87A
notes: as for B15
B23: AD4 (VNAR)
VNAR: B1 VNAR with Q38R, Q39K, K40N, I51M, G62S
notes: as for B15
B24: BB10 (VNAR)
VNAR: B1 VNAR with Q38R, Q39K, K40N, I90F
notes: as for B15
B25: SEQ ID NO 33 (VNAR)
VNAR: B10 VNAR with P44S, R48Q, A88T, N89D, A99V
notes: clone name not tied to this number
B26: SEQ ID NO 48 (VNAR)
VNAR: B13 VNAR with P50S
notes: as for B25
B27: SEQ ID NO 43 (VNAR)
VNAR: B10 VNAR with A1T, P44S, A88T, N89D
notes: as for B25
B28: SEQ ID NO 40 (VNAR)
VNAR: B10 VNAR with A1T, P44S, A88T
notes: as for B25
B29: SEQ ID NO 35 (VNAR)
VNAR: B10 VNAR with A1T, P44S, R48Q, A88T
notes: as for B25
B30: SEQ ID NO 39 (VNAR)
VNAR: B10 VNAR with A1T, P44S, A88T, N89D, A99V
notes: as for B25
B31: SEQ ID NO 42 (VNAR)
VNAR: B10 VNAR with A1T, S33R, P44S, R48Q, A88T, A99V
notes: as for B25
B32: SEQ ID NO 50 (VNAR)
VNAR: B10 VNAR with R2S, D4N, P44S, A88T, N89D, A99V
notes: as for B25
B33: SEQ ID NO 44 (VNAR)
VNAR: B10 VNAR with A1T, P44S, A88T, S90I, A99V
notes: as for B25
B34: SEQ ID NO 49 (VNAR)
VNAR: B10 VNAR with R2K, P44S, R48Q, A88T, N89D, A99V
notes: as for B25
B35: SEQ ID NO 38 (VNAR)
VNAR: B10 VNAR with A1T, S33R, P44S, R48Q, A88T, N89D, A99V
notes: as for B25

Molecular target: T1, rat serum albumin (rat, UniProt P02770 25-608)
T1 construct: also called RSA
T1 sequence (P02770 25-608 limits assumed): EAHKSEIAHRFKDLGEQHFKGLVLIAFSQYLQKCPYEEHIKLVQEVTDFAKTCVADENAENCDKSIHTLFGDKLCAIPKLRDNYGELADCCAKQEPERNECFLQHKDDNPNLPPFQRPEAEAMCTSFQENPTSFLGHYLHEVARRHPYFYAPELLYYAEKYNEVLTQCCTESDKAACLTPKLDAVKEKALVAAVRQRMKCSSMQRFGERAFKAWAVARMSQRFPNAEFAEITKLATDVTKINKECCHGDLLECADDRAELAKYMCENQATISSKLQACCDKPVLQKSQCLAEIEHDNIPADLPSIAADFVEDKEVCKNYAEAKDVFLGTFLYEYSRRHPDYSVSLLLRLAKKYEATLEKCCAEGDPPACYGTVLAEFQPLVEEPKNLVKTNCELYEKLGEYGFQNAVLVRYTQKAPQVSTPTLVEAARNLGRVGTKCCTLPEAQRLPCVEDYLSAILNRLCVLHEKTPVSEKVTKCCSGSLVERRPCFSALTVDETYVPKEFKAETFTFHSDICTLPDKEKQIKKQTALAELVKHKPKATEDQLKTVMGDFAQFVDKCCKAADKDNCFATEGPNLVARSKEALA
Test: BIAcore, pH 6.0, monomeric 6xHis-tagged VNAR

Binder	Fold change from E06 [fold]	Kd [nM]	koff [s⁻¹]	kon [M⁻¹ s⁻¹]
B1	29	9.94	0.031	3.12e+06
B2	12.2	4.17	0.0152	3.65e+06

Molecular target: T2, mouse serum albumin (mouse, UniProt P07724 25-608)
T2 construct: also called MSA
T2 sequence (P07724 25-608 limits assumed): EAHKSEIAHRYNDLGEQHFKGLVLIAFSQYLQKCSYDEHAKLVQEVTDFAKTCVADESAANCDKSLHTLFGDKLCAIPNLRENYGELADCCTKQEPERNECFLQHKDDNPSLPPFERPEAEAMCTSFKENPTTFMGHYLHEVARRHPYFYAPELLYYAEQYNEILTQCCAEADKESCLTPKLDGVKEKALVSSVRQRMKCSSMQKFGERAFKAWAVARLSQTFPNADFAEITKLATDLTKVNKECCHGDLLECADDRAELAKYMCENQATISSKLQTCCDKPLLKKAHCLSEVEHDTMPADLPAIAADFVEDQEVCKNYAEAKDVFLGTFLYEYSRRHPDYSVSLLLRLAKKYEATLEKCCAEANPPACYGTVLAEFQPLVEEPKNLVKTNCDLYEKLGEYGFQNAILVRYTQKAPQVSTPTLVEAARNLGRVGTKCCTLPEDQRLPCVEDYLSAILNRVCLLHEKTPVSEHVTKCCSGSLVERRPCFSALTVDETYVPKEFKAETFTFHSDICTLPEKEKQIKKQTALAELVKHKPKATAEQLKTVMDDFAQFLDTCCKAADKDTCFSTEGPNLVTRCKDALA
Test: BIAcore, pH 6.0, monomeric 6xHis-tagged VNAR

Binder	Fold change from E06 [fold]	Kd [nM]	koff [s⁻¹]	kon [M⁻¹ s⁻¹]
B1	28.3	9.28	0.0318	3.43e+06
B2	12.2	3.98	0.0125	3.14e+06

Molecular target: T3, human serum albumin (human, UniProt P02768 25-609)
T3 construct: also called HSA; HAS
Test: BIAcore, pH 6.0, monomeric 6xHis-tagged VNAR

Binder	Fold change from E06 [fold]	Kd [nM]	koff [s⁻¹]	kon [M⁻¹ s⁻¹]
B1	35.6	5.07	0.0184	3.62e+06
B2	12.7	1.81	0.00637	3.52e+06

Molecular target: T3, human serum albumin
Test: screening of the unselected immunized library on HSA

Binder	binding result
B3	binds
B4	binds
B5	binds
B6	binds
B7	binds
B8	binds
B9	binds
B10	binds
B11	binds
B12	binds
B13	binds
B14	binds

Molecular target: T1, rat serum albumin
Test: BIAcore, pH 7.4, monomeric 6xHis-tagged VNAR

Binder	Fold change from E06 [fold]	Kd [nM]	koff [s⁻¹]	kon [M⁻¹ s⁻¹]
B1	52	75.3	0.0329	436000
B2	25.4	36.8	0.0165	449000

Molecular target: T2, mouse serum albumin
Test: BIAcore, pH 7.4, monomeric 6xHis-tagged VNAR

Binder	Fold change from E06 [fold]	Kd [nM]	koff [s⁻¹]	kon [M⁻¹ s⁻¹]
B1	59.4	49.2	0.0414	841000
B2	28.1	23.2	0.00959	412000

Molecular target: T3, human serum albumin
Test: BIAcore, pH 7.4, monomeric 6xHis-tagged VNAR

Binder	Fold change from E06 [fold]	Kd [nM]	koff [s⁻¹]	kon [M⁻¹ s⁻¹]
B1	84.9	16	0.014	872000
B2	33.9	6.4	0.00357	559000

Molecular target: T3, human serum albumin
Test: phage and periprep ELISA on HSA; purified 6xHis-tagged VNAR
Experimental: The resultant mutational phage display libraries were rescued and selected twice using Nunc Maxisorp immunotubes. Following each pan, two 96-well plates of individual colonies were picked with a QPix2 XT (Genetix, San Jose, Calif., USA). Binding as monoclonal phage and periprep was evaluated by ELISA. All samples were processed with a Perkin Elmer MiniTrak robotic liquid handling system (Waltham, Mass., USA).

Binder	binding result
B15	binds
B16	binds
B17	binds
B18	binds
B19	binds
B20	binds
B21	binds
B22	binds
B23	binds
B24	binds

Molecular target: T3, human serum albumin
Test: phage display panning on HSA and screening

Binder	binding result
B25	binds
B26	binds
B27	binds
B28	binds
B29	binds
B30	binds
B31	binds
B32	binds
B33	binds
B34	binds
B35	binds
